This is an account of results in patent US20260116991A1 (HAINAN SIMCERE ZAIMING PHARMACEUTICAL, published 2026).

The labels stand for the following.
T1: polypeptide GC3pep (human)
T1 construct: also called membrane proximal polypeptide GC3pep
T1 peptide: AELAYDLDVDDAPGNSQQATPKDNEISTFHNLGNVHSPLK

B1: F1.62.9 (antibody, human IgG1, kappa, V domains shown)
VH: QVQLQQSDAELVKPGASVKISCKVSGYIFTDHTIHWMKQRPEQGLEWIGYIYPRDGSIKYNENFKGKATLTADKSSSATYMQLNSLTSEDSAVYFCARPIYYDYAYYFDYWGQGTTLTVSS
VL: DVVMTQSPLSLPVSLGDQASISCRSRQSLVHSNGNTYLHWYLQKPGQSPKVLIYKVSNRFSGVPDRFSGSGSGTDFTLKISRVEAEDLGVYFCSQSTHVPYTFGGGTKLEIKR
notes: human-murine chimeric antibody
B2: F1.3.9 (antibody, human IgG1, kappa, V domains shown)
VH: QVQLQQPGTELVKPGASVKLSCKASGYTFTSYWIHWVKQRPGQGLEWIGNINPPNAGTNYNEKFKSKATLTVDKSSSTAYMQLSSLTSEDSAVYYCARGRWLLHDYWGQGTTLTVSS
VL: DIQMTQSPASLSISVGETVTITCRASENIYSNLAWYQQKQGKSPQLLVYGTKNLAEGVPSRFSGSGSGTQYSLKINSLQSEDFGNYYCQHFWGTPYTFGGGTKLEILR
notes: as for B1
B3: F2.55.11 (antibody, human IgG1, kappa, V domains shown)
VH: EVKLVESGGGLVKPGGSLKLSCAASGLTFSTCTMSWVRQTPAKRLEWVATISSGGGNTYYPDSVKGRFTISRDNARNTLYLQMSSLRSEDTAMYYCVRLYYDGSPYAMDYWGQGTSVTVSS
VL: DIQMTQTTSSLSASLGDRVTISCRASQDISNHLNWYQQKPDGTVKLLIYYTSRLHSGVPSRFSGSGSGTDYSLTISNLEQEDIATYFCQQDSKPPPTFGSGTKLEIKR
notes: as for B1
B4: F1.153.1 (antibody, human IgG1, kappa, V domains shown)
VH: QIQLVQSGPELKKPGETVKISCKASGYTFTTAGMQWVQKMPGKGFKWIGWINTHSGEPQYAEDFKGRFAFSLETSASTAYLQISNLKNEDTATYFCARSFYYHGSSFFYFDYWGQGTTLTVSS
VL: DIVMTQSQKFMSTTVGDRVSITCKASQNVGTAVAWYQQKPGQSPKLLIYSASNRYTGVPDRFTGSGSGADFTLTISNMQSEDLADYFCQQYSRYPLTFGAGTKLELKR
notes: as for B1
B5: F1.9.19 (antibody, human IgG1, kappa, V domains shown)
VH: DVQLQESGPGLVKPSQSLSLTCSVTGYSITSGYYWNWIRQFPGNRLEWMAYISYDGINNYNPSLKNRISIARDTSTNQFFLKLNSVTSEDTATYYCATTTEVALFDHWGQGTTLTVSS
VL: DVLLTQTPLSLPVSLGDQASISCRSSQNIVHGNGNTYLEWFLQKPGQSPKLLIYKVSNRFSGVPDRFSGSGSGTDFTLKISRVEAEDLGLYYCFQASHVPWTFGGGTKLEIKR
notes: as for B1

The target of one assay is T1, polypeptide GC3pep. The assay is described as follows: ELISA, GC3pep coated, antibody 1 nM.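 Also: bound antibody detected with an HRP-conjugated secondary antibody and TMB substrate, reaction stopped with HCl, after 2 h binding at 37 °C.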
The molecule B1 yielded an OD450 nm of 0.05 OD450 nm.

Molecule B2 came in with an OD450 nm of 0.05 OD450 nm.

Molecule B3 yielded an OD450 nm of 2.41 OD450 nm.

As for B4, the OD450 nm stood at 0.04 OD450 nm.

For the molecule B5, the OD450 nm is 0.06 OD450 nm.

The next assay deals with T1, polypeptide GC3pep. The assay is described as follows: ELISA, GC3pep coated, antibody 10 nM. (An ELISA detects its analyte on a solid surface through an enzyme-linked reagent.)
Experimental: (§1) The plate was sealed with a plastic film and incubated at 4° C. overnight, washed twice with PBS the next day, and a blocking solution [PBS+2% (w/w) BSA] was added for blocking at room temperature for 2 h. […] After incubation at 37° C. for 2 h, the plate was washed 3 times with PBS. A horseradish peroxidase (HRP)-labeled secondary antibody (purchased from Merck, Cat. No. AP113P) was added for incubation at 37° C. for 1 h, and the plate was washed 5 times with PBS. A TMB substrate was added at 50 μL/well for incubation at room temperature for 10 min, then a stop solution (1.0M HCl) was added at 50 μL/well.
Consider B1, for which the OD450 nm came out at 0.07 OD450 nm.

The molecule B2 yielded an OD450 nm of 0.06 OD450 nm.

Take B3: the OD450 nm is 2.51 OD450 nm.

For B4, the OD450 nm was found to be 0.05 OD450 nm.

B5 yielded an OD450 nm of 0.06 OD450 nm.

The next assay deals with T1, polypeptide GC3pep. The assay is described as follows: ELISA, GC3pep coated, antibody 0.1 nM.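 Also: antibody allowed to bind the coated plate 2 h at 37 °C, then detected via HRP-conjugated secondary antibody and TMB development for 10 min, stopped with HCl.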
Experimental: as §1
B1 gave an OD450 nm of 0.05 OD450 nm.

B2: the OD450 nm was 0.05 OD450 nm.

Consider B3, for which the OD450 nm amounted to 1.34 OD450 nm.

As for B4, the OD450 nm is 0.05 OD450 nm.

Take B5: the OD450 nm worked out at 0.04 OD450 nm.

For another assay, the target named is T1, polypeptide GC3pep. The assay is described as follows: ELISA, GC3pep coated, antibody 100 nM.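 Also: detection with an HRP-conjugated secondary antibody and TMB substrate, color reaction stopped with HCl before absorbance reading.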
As for B1, the OD450 nm was 0.13 OD450 nm.

In turn, B2 displayed an OD450 nm of 0.13 OD450 nm.

As for B3, the OD450 nm amounted to 2.85 OD450 nm.

For the molecule B4, the OD450 nm was 0.11 OD450 nm.

In turn, B5 gave an OD450 nm of 0.08 OD450 nm.

The next assay addresses T1, polypeptide GC3pep. The assay is described as follows: ELISA, GC3pep coated, antibody 0.01 nM.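 Also: bound antibody detected with an HRP-conjugated secondary antibody and TMB substrate, color reaction stopped with HCl before reading absorbance.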
Experimental: as §1
The molecule B1 displayed an OD450 nm of 0.05 OD450 nm.

The molecule B2 displayed an OD450 nm of 0.05 OD450 nm.

Regarding B3, the OD450 nm is 0.26 OD450 nm.

As for B4, the OD450 nm worked out at 0.04 OD450 nm.

B5 registered an OD450 nm of 0.05 OD450 nm.

The target in a further assay is T1, polypeptide GC3pep. The assay is described as follows: ELISA, GC3pep coated, antibody 0.001 nM.
B1 registered an OD450 nm of 0.05 OD450 nm.

The molecule B2 displayed an OD450 nm of 0.05 OD450 nm.

As to B3, the OD450 nm was determined as 0.07 OD450 nm.

B4 came in with an OD450 nm of 0.05 OD450 nm.

B5 registered an OD450 nm of 0.07 OD450 nm.

Another assay addresses T1, polypeptide GC3pep. The assay is described as follows: ELISA, GC3pep coated, antibody 0.0001 nM.
For the molecule B1, the OD450 nm was 0.05 OD450 nm.

B2 gave an OD450 nm of 0.07 OD450 nm.

Molecule B3 came in with an OD450 nm of 0.05 OD450 nm.

As for B4, the OD450 nm was 0.06 OD450 nm.

In the case of B5, the OD450 nm worked out at 0.05 OD450 nm.
